Numbered stars: 1 amine (or outer) side, 2 acyl side, 3 side chain; on linkers, the order of the positions; unused ones are H or OH. Square brackets hold non-standard residues; d marks the D form. Primed or numbered codes have the meaning given here. Ends that are not written are not given here. * marks the point of attachment. Trp(For)″ = Trp(CHO), O=Cn1cc(C[C@H](N[*:1])C(=O)[*:2])c2ccccc21; Phe(4-CN) = N#Cc1ccc(C[C@H](N)C(=O)O)cc1; Phe(4-Cl) = N[C@@H](Cc1ccc(Cl)cc1)C(=O)O; Phe(4-F) = N[C@@H](Cc1ccc(F)cc1)C(=O)O; Phe(2-F) = N[C@@H](Cc1ccccc1F)C(=O)O; Arg(Me) = CNC(=N)NCCC[C@H](N)C(=O)O; Fmoc = O=C(OCC1c2ccccc2-c2ccccc21)*; 2Pal = N[C@@H](Cc1ccccn1)C(=O)O; 3Pal = N[C@@H](Cc1cccnc1)C(=O)O; Cha = N[C@@H](CC1CCCCC1)C(=O)O; Arg(Et)′ = not defined here; Dab = NCC[C@H](N)C(=O)O; azaGly = NNC(=O)O

Data on 48 molecules can be found in US20060241051A1 (Takeda / Millennium, published 2006).

The target of the assay is T1, human OT7T175 (metastin receptor) (human, UniProt Q969F8 1-398).
T1 construct: expressed on CHO cells (hOT7T175-expressed CHO cells; hOT7T175/CHO); also called hOT7T175; h0T7T175
The assay is described as follows: FMAT competition with Cy-5-labeled metastin (40-54), hOT7T175-expressed CHO cells. The protocol:
h0T7T175-Expressed CHO cells were cultured in MEM-α medium (nucleic acid-free) containing 10% dialyzed serum. The medium was removed and the adherent cells were washed with PBS. Then, PBS containing 5 mM EDTA was added and the cells were scraped from a flask with a cell scraper. […] To each well of a 96-Well Black Clear Bottom Plate (Applied Biosystems, Inc.), 10 μL of assay buffer containing 1% dimethylsulfoxide was added to examine total binding, 10 μL of 10 μM non-labeled peptide (having the same amino acid sequence as that of the labeled one) solution diluted with assay buffer to examine non-specific binding, and 10 μL of a test compound diluted with assay buffer to examine the binding inhibition activity of the test compound, respectively. Furthermore, 90 μL each of the cell suspension was dispensed to each well. […] The specific binding is a value obtained by subtracting the non-specific binding from the total binding.

T1 sequence (Q969F8 whole entry L364H): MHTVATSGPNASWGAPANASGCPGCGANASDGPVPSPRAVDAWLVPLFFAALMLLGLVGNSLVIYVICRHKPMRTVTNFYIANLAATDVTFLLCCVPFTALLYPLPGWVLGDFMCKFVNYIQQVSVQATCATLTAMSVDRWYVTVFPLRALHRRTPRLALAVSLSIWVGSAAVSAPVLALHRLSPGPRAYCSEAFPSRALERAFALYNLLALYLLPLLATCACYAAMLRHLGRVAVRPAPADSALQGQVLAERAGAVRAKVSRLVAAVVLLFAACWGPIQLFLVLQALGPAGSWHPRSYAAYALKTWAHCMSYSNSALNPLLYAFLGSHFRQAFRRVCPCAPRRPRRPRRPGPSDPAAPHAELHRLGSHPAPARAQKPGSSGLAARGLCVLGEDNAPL

B1: Compound No. 308: [6Ψ7, CH2NH,D-Tyr1,Arg(Me)9]MS10 (peptide)
peptide: [dY]NWNSFGL[Arg(Me)]F-NH2
modifications: also: Phe6-Gly7 bond reduced (CH2NH)
With B1, the IC50 – broadly, the midpoint of a concentration-inhibition curve – worked out at 350 nM.

B2: Compound No. 236: (D-Tyr1,D-Trp3,AzaGly7,Arg(Me)9]MS10 (peptide)
peptide: [dY]N[dW]NSF[azaGly]LR(Me)F-NH2
Molecule B2 showed an IC50 of 42 nM.

B3: Compound No. 285: [D-Tyr1,Pya(2) 3,AzaGly7,Arg(Me)9]MS10 (peptide)
peptide: [dY]N[2Pal]NSF[azaGly]L[Arg(Me)]F-NH2
modifications: N-terminus assumed
SMILES: CNC(=N)NCCC[C@H](NC(=O)[C@H](CC(C)C)NC(=O)NNC(=O)[C@H](Cc1ccccc1)NC(=O)[C@H](CO)NC(=O)[C@H](CC(N)=O)NC(=O)[C@H](Cc1ccccn1)NC(=O)[C@H](CC(N)=O)NC(=O)[C@H](N)Cc1ccc(O)cc1)C(=O)N[C@@H](Cc1ccccc1)C(N)=O
Turning to B3, the IC50 is 40 nM.

B4: Compound No. 19: [Phe(2F)10]MS10 (peptide)
peptide: YNWNSFGLR[Phe(2-F)]-NH2
In turn, B4 came in with an IC50 of 8.6 nM.

B5: Compound No. 307: [7Ψ8,CH2NH,D-Tyr1,Arg(Me)9]MS10 (peptide)
peptide: [dY]NWNSFGL[Arg(Me)]F-NH2
modifications: also: Gly7-Leu8 bond reduced (CH2NH)
B5 came in with an IC50 of 64 nM.

B6: Compound No. 23: [Tyr5]MS10 (peptide)
peptide: YNWNYFGLRF-NH2
As to B6, the IC50 turned out to be 400 nM.

B7: Compound No. 57: [Asp2]MS10 (peptide)
peptide: YDWNSFGLRF-NH2
Take B7: the IC50 is 100 nM.

B8: Compound No. 221: [D-Tyr1,Thr3,AzaGly7,Arg(Me)9]MS10 (peptide)
peptide: [dY]NTNSF[azaGly]L[Arg(Me)]F-NH2
In turn, B8 registered an IC50 of 95 nM.

B9: Compound No. 186: [Trp(For)10]MS10 (peptide)
peptide: YNWNSFGLR[Trp(For)″]-NH2
notes: also called [Trp(CHO)10]MS10
B9: the IC50 was 460 nM.

B10: Compound No. 44: [Lys9]MS10 (peptide)
peptide: YNWNSFGLKF-NH2
The molecule B10 displayed an IC50 of 190 nM.

B11: Compound No. 59: [Leu2]MS10 (peptide)
peptide: YLWNSFGLRF-NH2
Take B11: the IC50 came to 340 nM.

B12: Compound No. 73: [Leu1]MS10 (peptide)
peptide: LNWNSFGLRF-NH2
B12: the IC50 was found to be 220 nM.

B13: Compound No. 107: [Val8]MS10 (peptide)
peptide: YNWNSFGVRF-NH2
B13 came in with an IC50 of 120 nM.

B14: Compound No. 69: [Ser3]MS10 (peptide)
peptide: YNSNSFGLRF-NH2
On to B14, for which the IC50 is 83 nM.

B15: Compound No. 70: [Asp3]MS10 (peptide)
peptide: YNDNSFGLRF-NH2
Take B15: the IC50 came out at 200 nM.

B16: Compound No. 252: [D-Tyr1,D-Ala3,AzaGly7,Arg(Me)9]MS10 (peptide)
peptide: [dY]N[dA]NSF[azaGly]L[Arg(Me)]F-NH2
Molecule B16 yielded an IC50 of 580 nM.

B17: Compound No. 67: [Ala3]MS10 (peptide)
peptide: YNANSFGLRF-NH2
As to B17, the IC50 worked out at 27 nM.

B18: Compound No. 71: [Lys3]MS10 (peptide)
peptide: YNKNSFGLRF-NH2
The molecule B18 gave an IC50 of 66 nM. This IC50 is about 2.4-fold higher than that of the molecule before.

B19: Compound No. 68: [Leu3]MS10 (peptide)
peptide: YNLNSFGLRF-NH2
B19 had an IC50 of 7.7 nM.

B20: Compound No. 58: [Tyr2]MS10 (peptide)
peptide: YYWNSFGLRF-NH2
For B20, the IC50 came out at 16 nM.

B21: Compound No. 150: [Tyr6]MS10 (peptide)
peptide: YNWNSYGLRF-NH2
Regarding B21, the 50% inhibitory concentration (IC50) was 320 nM.

B22: Compound No. 72: [Ala1]MS10 (peptide)
peptide: ANWNSFGLRF-NH2
As to B22, the IC50 was 540 nM.

B23: Compound No. 253: [D-Tyr1,Pro3,AzaGly7,Arg(Me)9]MS10 (peptide)
peptide: [dY]NPNSF[azaGly]L[Arg(Me)]F-NH2
B23 registered an IC50 of 27 nM.

B24: Compound No. 191: [D-Tyr1,Ser3,AzaGly7,Arg(Me)9]MS10 (peptide)
peptide: [dY]NSNSF[azaGly]L[Arg(Me)]F-NH2
As for B24, the concentration for half-maximal inhibition (IC50) was 300 nM.

B25: Compound No. 142: [D-Tyr1,D-Trp3,Arg(Me)9]MS10 (peptide)
peptide: [dY]N[dW]NSFGL[Arg(Me)]F-NH2
In the case of B25, the IC50 was 26 nM. Compared with the last molecule, the IC50 is about 12-fold lower.

B26: Compound No. 328: des(1-3)-D-Glucuronyl-[AzaGly7,Arg(Me)9]MS10 (peptide)
peptide: {D‑Glucuronyl}-NSF[azaGly]L[Arg(Me)]F-NH2
B26 displayed an IC50 of 470 nM. This IC50 is about 18-fold higher than that of the molecule before.

B27: Compound No. 181: [D-Tyr1,Cha3,6,Arg(Me)9]MS10 (peptide)
peptide: [dY]N[Cha]NS[Cha]GL[Arg(Me)]F-NH2
In the case of B27, the IC50 amounted to 19 nM.

B28: Compound No. 60: [Pya(3)10]MS10 (peptide)
peptide: YNWNSFGLRX
modifications: Pya(3)10; C-terminal amide
For the molecule B28, the IC50 was found to be 170 nM. This IC50 lies about 8.9-fold higher than the previous one.

B29: Compound No. 283: [D-Tyr1,D-Asn2,Cha3,AzaGly7,Arg(Me)9]MS10 (peptide)
peptide: [dY][dN][Cha]NSF[azaGly]L[Arg(Me)]F-NH2
The molecule B29 registered an IC50 of 0.69 nM.

B30: Compound No. 4: des(1)-MS10 (peptide)
peptide: NWNSFGLRF-NH2
notes: also called human metastin 9 (46-54)
B30 had an IC50 of 260 nM.

B31: Compound No. 239: des(1)-[D-Tyr2,Ser3,AzaGly7,Arg(Me)9]MS10 (peptide)
peptide: [dY]SNSF[azaGly]L[Arg(Me)]F-NH2
In turn, B31 yielded an IC50 of 120 nM. This IC50 lies about 2.2-fold lower than the previous one.

B32: Compound No. 227: des(1)-[D-Tyr2,Thr3,Arg(Me)9]MS10 (peptide)
peptide: [dY]TNSFGL[Arg(Me)]F-NH2
In turn, B32 gave an IC50 of 48 nM.

B33: Compound No. 226: des(1)-[D-Tyr2,Ser3,Arg(Me)9]MS10 (peptide)
peptide: [dY]SNSFGL[Arg(Me)]F-NH2
Regarding B33, the IC50 turned out to be 100 nM. This IC50 lies about 2.1-fold higher than the previous one.

B34: Compound No. 240: des(1)-[D-Tyr2,Ile3,AzaGly7,Arg(Me)9]MS10 (peptide)
peptide: [dY]INSF[azaGly]L[Arg(Me)]F-NH2
For B34, the IC50 came to 17 nM.

B35: Compound No. 225: des(1)-[D-Asn2,D-Trp3,Arg(Me)9]MS10 (peptide)
peptide: [dN][dW]NSFGL[Arg(Me)]F-NH2
As for B35, the IC50 was found to be 410 nM.

B36: Compound No. 77: [Phe(4CN)10]MS10 (peptide)
peptide: YNWNSFGLR[Phe(4-CN)]-NH2
Consider B36, for which the IC50 was determined as 7.4 nM.

B37: Compound No. 299: [1Ψ2,CH2NH,AzaGly7,Arg(Me)9]-MS10 (peptide)
peptide: YNWNSF[azaGly]L[Arg(Me)]F-NH2
modifications: also: Tyr1-Asn2 bond reduced (CH2NH)
In the case of B37, the IC50 is 1.2 nM.

B38: Compound No. 275: des(1-2)-Acetyl-[Arg3,AzaGly7,Arg(Me)9]MS10 (peptide)
peptide: Ac-RNSF[azaGly]L[Arg(Me)]F-NH2
SMILES: CNC(=N)NCCC[C@H](NC(=O)[C@H](CC(C)C)NC(=O)NNC(=O)[C@H](Cc1ccccc1)NC(=O)[C@H](CO)NC(=O)[C@H](CC(N)=O)NC(=O)[C@H](CCCNC(=N)N)NC(C)=O)C(=O)N[C@@H](Cc1ccccc1)C(N)=O
In turn, B38 came in with an IC50 of 410 nM.

B39: Compound No. 276: des(1-2)-Acetyl-[Thr3,AzaGly7,Arg(Me)9]MS10 (peptide)
peptide: Ac-TNSF[azaGly]L[Arg(Me)]F-NH2
SMILES: CNC(=N)NCCC[C@H](NC(=O)[C@H](CC(C)C)NC(=O)NNC(=O)[C@H](Cc1ccccc1)NC(=O)[C@H](CO)NC(=O)[C@H](CC(N)=O)NC(=O)[C@@H](NC(C)=O)[C@@H](C)O)C(=O)N[C@@H](Cc1ccccc1)C(N)=O
Molecule B39 had an IC50 of 480 nM.

B40: Compound No. 192: [D-Tyr1,Arg(Et)9]MS10 (peptide)
peptide: [dY]NWNSFGL[Arg(Et)′]F-NH2
Molecule B40 registered an IC50 of 530 nM.

B41: Compound No. 82: [Arg(Me)9]MS10 (peptide)
peptide: YNWNSFGL[Arg(Me)]F-NH2
In turn, B41 returned an IC50 of 4.1 nM.

B42: Compound No. 61: [Phe(4F)10]MS10 (peptide)
peptide: YNWNSFGLR[Phe(4-F)]-NH2
B42 came in with an IC50 of 13 nM. Against the preceding molecule, the IC50 is about 3.2-fold higher.

B43: Compound No. 223: des(1-2)-[D-Trp3,Arg(Me)9]MS10 (peptide)
peptide: [dW]NSFGL[Arg(Me)]F-NH2
B43: the IC50 amounted to 760 nM.

B44: Compound No. 145: des(1-2)-Fmoc-[Arg(Me)9]MS10 (peptide)
peptide: Fmoc-WNSFGL[Arg(Me)]F-NH2
SMILES: CNC(=N)NCCC[C@H](NC(=O)[C@H](CC(C)C)NC(=O)CNC(=O)[C@H](Cc1ccccc1)NC(=O)[C@H](CO)NC(=O)[C@H](CC(N)=O)NC(=O)[C@H](Cc1c[nH]c2ccccc12)NC(=O)OCC1c2ccccc2-c2ccccc21)C(=O)N[C@@H](Cc1ccccc1)C(N)=O
Turning to B44, the IC50 worked out at 120 nM.

B45: Compound No. 318: [D-Tyr1,AzaGly7,Arg(Me)9,Phe(4F)10]MS10 (peptide)
peptide: [dY]NWNSF[azaGly]L[Arg(Me)][Phe(4-F)]-NH2
In the case of B45, the IC50 was 0.99 nM.

B46: Compound No. 130: [Phe(4Cl)10]MS10 (peptide)
peptide: YNWNSFGLR[Phe(4-Cl)]-NH2
The molecule B46 gave an IC50 of 42 nM.

B47: Compound No. 251: [D-Tyr1,Pya(3) 3,AzaGly7,Arg(Me)9]MS10 (peptide)
peptide: [dY]N[3Pal]NSF[azaGly]L[Arg(Me)]F-NH2
modifications: N-terminus assumed
SMILES: CNC(=N)NCCC[C@H](NC(=O)[C@H](CC(C)C)NC(=O)NNC(=O)[C@H](Cc1ccccc1)NC(=O)[C@H](CO)NC(=O)[C@H](CC(N)=O)NC(=O)[C@H](Cc1cccnc1)NC(=O)[C@H](CC(N)=O)NC(=O)[C@H](N)Cc1ccc(O)cc1)C(=O)N[C@@H](Cc1ccccc1)C(N)=O
B47 yielded an IC50 of 87 nM.

B48: Compound No. 313: [Dab9]MS10 (peptide)
peptide: YNWNSFGL[Dab]F-NH2
As for B48, the IC50 worked out at 690 nM.
